Results published in patent publication US20250388640A1 (SYNTHEKINE, published 2025).
Positions count from the first letter of the chain named. In names and notes the source's numbering stands.

B1: human IL12 mutein, hIL-12p40 E81S, F82A with hIL-12p35-8X His (ligand)
chain 1: IWELKKDVYVVELDWYPDAPGEMVVLTCDTPEEDGITWTLDQSSEVLGSGKTLTIQVKSAGDAGQYTCHKGGEVLSHSLLLLHKKEDGIWSTDILKDQKEPKNKTFLRCEAKNYSGRFTCWWLTTISTDLTFSVKSSRGSSDPQGVTCGAATLSAERVRGDNKEYEYSVECQEDSACPAAEESLPIEVMVDAVHKLKYENYTSSFFIRDIIKPDPPKNLQLKPLKNSRQVEVSWEYPDTWSTPHSYFSLTFCVQVQGKSKREKKDRVFTDKTSATVICRKNASISVRAQDRYYSSSWSEWASVPCS
chain 2: RNLPVATPDPGMFPCLHHSQNLLRAVSNMLQKARQTLEFYPCTSEEIDHEDITKDKTSTVEACLPLELTKNESCLNSRETSFITNGSCLASRKTSFMMALCLSSIYEDLKMYQVEFKTMNAKLLMDPKRQIFLDQNMLAVIDELMQALNFNSETVPQKSSLEEPDFYKTKIKLCILLHAFRIRAVTIDRVMSYLNASGSHHHHHHHH
B2: human IL12 mutein, hIL-12p40 E81K, F82A with hIL-12p35-8X His (ligand)
chain 1: B1 chain 1 with S59K
chain 2: B1 chain 2
B3: human IL12 mutein, hIL-12p40 E81L, F82A with hIL-12p35-8X His (ligand)
chain 1: B1 chain 1 with S59L
chain 2: B1 chain 2
B4: human IL12 mutein, hIL-12p40 E81N, F82A with hIL-12p35-8X His (ligand)
chain 1: B1 chain 1 with S59N
chain 2: B1 chain 2
B5: human IL12 mutein, hIL-12p40 E81V, F82A with hIL-12p35-8X His (ligand)
chain 1: B1 chain 1 with S59V
chain 2: B1 chain 2
B6: human IL12 mutein, hIL-12p40 E81R, F82A with hIL-12p35-8X His (ligand)
chain 1: B1 chain 1 with S59R
chain 2: B1 chain 2
B7: human IL12 mutein, hIL-12p40 E81A, F82A with hIL-12p35-8X His (ligand)
chain 1: B1 chain 1 with S59A
chain 2: B1 chain 2
B8: human IL12 mutein, hIL-12p40 E81A, F82A, K106A with hIL-12p35-8X His (ligand)
chain 1: B1 chain 1 with S59A, K84A
chain 2: B1 chain 2
B9: human IL12 mutein, hIL-12p40 E81G, F82A with hIL-12p35-8X His (ligand)
chain 1: B1 chain 1 with S59G
chain 2: B1 chain 2
B10: human IL12 mutein, hIL-12p40 E81I, F82A with hIL-12p35-8X His (ligand)
chain 1: B1 chain 1 with S59I
chain 2: B1 chain 2
B11: human IL12 mutein, hIL-12p40 E81A, F82C with hIL-12p35-8X His (ligand)
chain 1: B1 chain 1 with S59A, A60C
chain 2: B1 chain 2
B12: human IL12 mutein, hIL-12p40 E81A, F82P with hIL-12p35-8X His (ligand)
chain 1: B1 chain 1 with S59A, A60P
chain 2: B1 chain 2
B13: human IL12 wild type (hIL-12p40 wild type with hIL-12p35-8X His) (ligand)
chain 1: B1 chain 1 with S59E, A60F
chain 2: B1 chain 2

The binders below were run against T1, hIL-12 receptor signaling complex (hIL-12Rβ1 and hIL-12Rβ2) (human, UniProt P42701 24-662; Q99665 24-862) (assay: cell-based or functional assay).
T1 sequence (Q99665 24-862, chain 2 of 2, other chains not shown): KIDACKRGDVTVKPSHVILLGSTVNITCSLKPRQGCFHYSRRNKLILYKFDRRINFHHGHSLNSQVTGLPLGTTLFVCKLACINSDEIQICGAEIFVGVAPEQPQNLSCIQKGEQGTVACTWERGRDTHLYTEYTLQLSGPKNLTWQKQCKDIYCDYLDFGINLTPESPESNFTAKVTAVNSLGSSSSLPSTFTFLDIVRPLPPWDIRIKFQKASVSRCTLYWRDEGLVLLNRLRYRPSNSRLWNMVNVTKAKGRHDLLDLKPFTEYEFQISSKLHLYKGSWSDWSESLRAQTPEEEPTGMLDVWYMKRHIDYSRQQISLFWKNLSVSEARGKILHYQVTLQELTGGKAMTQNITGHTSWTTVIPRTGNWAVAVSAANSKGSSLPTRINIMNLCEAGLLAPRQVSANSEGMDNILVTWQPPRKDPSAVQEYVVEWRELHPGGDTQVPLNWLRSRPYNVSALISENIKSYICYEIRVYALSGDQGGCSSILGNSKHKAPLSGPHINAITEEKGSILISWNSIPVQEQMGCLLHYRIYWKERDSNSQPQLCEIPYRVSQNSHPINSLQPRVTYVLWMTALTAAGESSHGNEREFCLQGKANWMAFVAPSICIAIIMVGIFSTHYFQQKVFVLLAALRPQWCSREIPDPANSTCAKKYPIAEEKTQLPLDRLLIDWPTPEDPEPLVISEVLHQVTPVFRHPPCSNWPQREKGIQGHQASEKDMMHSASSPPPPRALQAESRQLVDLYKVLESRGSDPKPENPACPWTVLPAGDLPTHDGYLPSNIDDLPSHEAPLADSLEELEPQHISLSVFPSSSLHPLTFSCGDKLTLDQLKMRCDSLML

Binder | IFNy [gMFI] EC50, CD8+ T Cells | IFNy [gMFI] EC50, CD56hi NK Cells | IFNy [gMFI] Emax, CD8+ T Cells | IFNy [gMFI] Emax, CD56hi NK Cells
B1 | 0.21 nM | 0.73 nM | 11300 gMFI | 206000 gMFI
B2 | 0.51 nM | 0.62 nM | 13200 gMFI | 123000 gMFI
B3 | 0.39 nM | 0.47 nM | 11500 gMFI | 223000 gMFI
B4 | 0.43 nM | 0.6 nM | 11400 gMFI | 165000 gMFI
B5 | 0.38 nM | 0.5 nM | 10600 gMFI | 194000 gMFI
B6 | 0.35 nM | 0.75 nM | 16300 gMFI | 156000 gMFI
B7 | 0.41 nM | 2.56 nM | 17100 gMFI | 187000 gMFI
B8 | 1.4 nM | 2.8 nM | 15000 gMFI | 140000 gMFI
B9 | 0.14 nM | 0.29 nM | 10700 gMFI | 181000 gMFI
B10 | 0.55 nM | 1.48 nM | 11700 gMFI | 313000 gMFI

Biological target: T1, hIL-12 receptor signaling complex …
Assay: cell-based or functional assay
Remark: another data set of the same source

Binder | IFNy [%+] EC50, CD8+ T Cells | IFNy [%+] EC50, CD56hi NK Cells | IFNy [%+] Emax, CD8+ T Cells | IFNy [%+] Emax, CD56hi NK Cells
B1 | 0.101 nM | 0.014 nM | 69 %+ | 94.9 %+
B2 | 0.305 nM | 0.046 nM | 78.5 %+ | 93.7 %+
B3 | 0.185 nM | 0.003 nM | 68 %+ | 94.8 %+
B4 | 0.195 nM | 0.022 nM | 68.2 %+ | 92.8 %+
B5 | 0.226 nM | 0.026 nM | 67.4 %+ | 94.6 %+
B6 | 0.178 nM | 0.036 nM | 81.6 %+ | 94 %+
B7 | 0.095 nM | 0.02 nM | 81.5 %+ | 94 %+
B8 | 0.533 nM | 0.079 nM | 78.4 %+ | 90.8 %+
B9 | 0.08 nM | 0.01 nM | 67.4 %+ | 93.8 %+
B10 | 0.37 nM | 0.061 nM | 68.3 %+ | 93.7 %+

Biological target: T1, hIL-12 receptor signaling complex …
Assay: cell-based or functional assay
Remark: another data set of the same source

Binder | pSTAT4 [gMFI] EC50, CD8+ T Cells | pSTAT4 [gMFI] EC50, CD56hi NK Cells | pSTAT4 [gMFI] Emax, CD8+ T Cells | pSTAT4 [gMFI] Emax, CD56hi NK Cells
B7 | 6.6 nM | 5.94 nM | 100000 gMFI | 25000 gMFI
B11 | 12.7 nM | 30 nM | 87500 gMFI | 27000 gMFI
B8 | 9.75 nM | 156 nM | 86900 gMFI | 35700 gMFI
B12 | 2.87 nM | 8.04 nM | 94000 gMFI | 29600 gMFI
B13 | 0.03 nM | 0.06 nM | 121000 gMFI | 37700 gMFI

Biological target: T1, hIL-12 receptor signaling complex …
Assay: cell-based or functional assay
Remark: another data set of the same source

Binder | pSTAT4 [%+] EC50, CD8+ T Cells | pSTAT4 [%+] EC50, CD56hi NK Cells | pSTAT4 [%+] Emax, CD8+ T Cells | pSTAT4 [%+] Emax, CD56hi NK Cells
B7 | 1.13 nM | 1.85 nM | 80.2 %+ | 85.2 %+
B11 | 3.4 nM | 5.08 nM | 79 %+ | 85.2 %+
B8 | 1.86 nM | 4.03 nM | 77.7 %+ | 86.9 %+
B12 | 0.71 nM | 1.15 nM | 79.7 %+ | 87.6 %+
B13 | 0.01 nM | 0.01 nM | 85 %+ | 91.4 %+
